Measured values: patent publication EP4786496A1 (Nanjing Iaso Biotechnology Co., Ltd., dated 2026)

T1: BAFF-R on the surface of BAFF-R-positive cells (K562-BAFF-R, NALM6, RS4, MEC1, JEKO1) (human, UniProt Q96RJ3 1-184)
T1 construct: The cell line is named under assay or readout of each row; K562-BAFF-R overexpresses BAFF-R; the others are human tumour lines that carry it natively; also called K562-BAFF-R cells; RS4-luc
T1 sequence: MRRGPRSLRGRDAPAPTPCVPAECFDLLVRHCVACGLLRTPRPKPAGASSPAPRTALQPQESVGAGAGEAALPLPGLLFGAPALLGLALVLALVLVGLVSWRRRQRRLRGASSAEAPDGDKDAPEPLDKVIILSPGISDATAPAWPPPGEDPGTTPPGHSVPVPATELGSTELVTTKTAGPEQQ

T2: His-tagged human BAFF-R antigen (BAR-H52H3, Acro) (human, UniProt Q96RJ3 7-71, limits assumed)
T2 construct: Bought protein used in BLI; not shown: His tag
T2 sequence: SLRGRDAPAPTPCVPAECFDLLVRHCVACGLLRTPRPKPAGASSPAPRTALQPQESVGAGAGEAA

T3: Recombinant biotinylated Human BAFF-R Protein (KACTUS, BAFF-R-HM401) (human, UniProt Q96RJ3 7-71, limits assumed, biotinylated (site not stated))
T3 construct: Bought protein; treated as one product; also called BAFF-R-his-Bio; BAFF-R-Bio-his; not shown: His tag
T3 sequence: T2 sequence

T4: BAFFR-mouse-rFc (50353-M31H, Sino) (mouse, UniProt Q9D8D0 1-71)
T4 construct: Bought protein; also called Mouse BAFF-R; not shown: rFc
T4 sequence: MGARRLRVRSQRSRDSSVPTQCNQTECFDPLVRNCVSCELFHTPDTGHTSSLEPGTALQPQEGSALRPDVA

B1: VAY736 positive control phage antibody clone (scFv)
scFv: QVQLQQSGPGLVKPSQTLSLTCAISGDSVSSNSAAWGWIRQSPGRGLEWLGRIYYRSKWYNSYAVSVKSRITINPDTSKNQFSLQLNSVTPEDTAVYYCARYQWVPKIGVFDSWGQGTLVTVSSGGGGSGGGGSGGGGSDIVLTQSPATLSLSPGERATLSCRASQFILPEYLSWYQQKPGQAPRLLIYGSSSRATGVPARFSGSGSGTDFTLTISSLEPEDFAVYYCQQFYSSPLTFGQGTKVEIK
notes: also called VAY736 antibody
B2: Clone 5 monoclonal antibody with Fc comprising S228P/L235E (05VH-hFc PE) (antibody, human IgG4 S228P, V domains shown)
VH: EVQLVESGGGVVQPGRSLRLTCAASGFTFSTSGMYWIRQAPGKGLEWVSYISSSSSTIYYADSVKGRFTISRDNSKNTLYLQMNSLRAEDTAVYYCVTQSCGAGKCYPGVWGQGTTVTVSS
notes: Single-domain VH fused to a human Fc, made in CHOS cells; also called Clone 05; clone 05 monoclonal antibody

Columns and labels:
[1] = molecular target: T1, BAFF-R on the surface of …; test: flow cytometry, phage on K562-BAFF-R and NALM6 cells
[2] = molecular target: T2, His-tagged human BAFF-R antigen …; test: BLI (ForteBio Octet), His-tagged antigen on HIS1K sensor, antibody in solution
[3] = molecular target: T5, BAFFR-cyno-His (BAF-CM10R, KACTUS) (cynomolgus, UniProt Q96RJ3 7-71 (human entry), limits assumed); test: ELISA, antigen coated on plate, anti-human IgG HRP
T5 construct: Bought protein; also called Cyno BAFF-R; cynomolgus BAFF-R; not shown: His tag

[4] = molecular target: T3, Recombinant biotinylated Human BAFF-R …; test: ELISA, antigen coated on plate, anti-human IgG HRP
[5] = molecular target: T4, BAFFR-mouse-rFc (50353-M31H, Sino); test: ELISA, antigen coated on plate, anti-human IgG HRP

Row | Binder | binding result [1] | Kd [2] [nM] | koff [2] [s⁻¹] | kon [2] [M⁻¹ s⁻¹] | EC50 [3] [nM] | EC50 [4] [nM] | EC50 [5] [nM]
1 | B1 | binds | – | – | – | – | – | –
2 | B2 | – | 2.63 | 0.00163 | 622000 | 1.91 | 0.965 | 3.4
